How the values were obtained:
PRL3 (Homo sapiens) = PRL3 (Homo sapiens) (UniProt O75365); conditions: cited from earlier work
[1] = target: CNNM3 CBS domain (residues 301-452) with YPet at its C-terminus (UniProt Q8NE01); assay: FRET competition (inhibition) assay; conditions: CNNM3-YPet 200 nM, CyPet-PRL2 200 nM, pre-incubation 20 min at R.T., control without competitor est. 98%, n = 6, read off a plot
Sequence of CNNM3 CBS domain (residues 301-452) with YPet at its C-terminus (Q8NE01 301-452): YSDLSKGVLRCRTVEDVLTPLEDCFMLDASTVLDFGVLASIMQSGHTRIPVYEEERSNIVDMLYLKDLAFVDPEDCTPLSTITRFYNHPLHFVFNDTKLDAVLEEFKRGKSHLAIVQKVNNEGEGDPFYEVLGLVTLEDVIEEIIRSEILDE

Sequence of non-fluorescence protein-tagged PRL2 (Q12974 whole entry, stated change not applied): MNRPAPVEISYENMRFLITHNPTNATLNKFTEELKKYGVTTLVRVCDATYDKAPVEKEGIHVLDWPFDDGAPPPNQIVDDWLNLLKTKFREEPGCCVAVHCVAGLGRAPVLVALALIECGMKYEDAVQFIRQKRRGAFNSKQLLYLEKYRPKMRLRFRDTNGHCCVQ
Sequence of PRL3 (Homo sapiens) (O75365 1-170 C104E): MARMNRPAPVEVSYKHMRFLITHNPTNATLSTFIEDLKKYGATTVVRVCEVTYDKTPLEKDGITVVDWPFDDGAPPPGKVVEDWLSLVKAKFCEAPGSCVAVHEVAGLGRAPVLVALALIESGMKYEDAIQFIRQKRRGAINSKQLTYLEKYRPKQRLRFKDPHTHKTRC
Sequence of CNNM3 (Q8NE01 whole entry): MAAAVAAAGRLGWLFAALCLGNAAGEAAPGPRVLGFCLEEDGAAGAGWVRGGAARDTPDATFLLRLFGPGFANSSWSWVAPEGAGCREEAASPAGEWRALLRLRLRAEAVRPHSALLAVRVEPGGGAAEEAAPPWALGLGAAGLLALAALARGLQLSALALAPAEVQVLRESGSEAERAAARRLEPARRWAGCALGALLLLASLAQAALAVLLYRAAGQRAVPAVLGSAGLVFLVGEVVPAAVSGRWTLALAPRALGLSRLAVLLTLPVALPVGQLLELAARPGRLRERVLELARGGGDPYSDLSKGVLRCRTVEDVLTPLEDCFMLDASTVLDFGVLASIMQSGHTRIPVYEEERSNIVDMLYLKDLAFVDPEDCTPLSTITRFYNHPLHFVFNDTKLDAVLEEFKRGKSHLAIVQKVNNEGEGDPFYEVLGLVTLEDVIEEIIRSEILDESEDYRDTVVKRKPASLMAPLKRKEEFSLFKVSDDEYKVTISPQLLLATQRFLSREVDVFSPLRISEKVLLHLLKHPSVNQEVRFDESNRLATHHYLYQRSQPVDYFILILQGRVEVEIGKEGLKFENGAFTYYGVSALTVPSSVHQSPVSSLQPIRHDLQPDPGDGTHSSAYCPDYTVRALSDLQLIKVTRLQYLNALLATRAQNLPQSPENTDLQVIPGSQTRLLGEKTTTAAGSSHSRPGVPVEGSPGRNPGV

response ([1]; 1 µM untagged competitor, parent: est. 15)	response ([1]; 10 µM untagged competitor, parent: est. 11)	Substance	Kd (PRL3 (Homo sapiens))
		CNNM3 (from UniProt Q8NE01)	2800 nM
97%	76%	non-fluorescence protein-tagged PRL2 (from UniProt Q12974-1) C107E	

From PMC7393355, “A FRET-based screening method to detect potential inhibitors of the binding of CNNM3 to PRL2” (Scientific Reports, 2020)
